Read-outs that look alike come from different tables or passages of the source. Blank lines part the entries; values can stand above or below the binder they belong to.
Experiments:
[1] = biological target: T1, human CD73 on the cell surface of CHOK1-huCD73-3F4 cells (Huabo Biopharm) (human, UniProt P21589 27-549); test: cell-based or functional assay
T1 sequence (looked up): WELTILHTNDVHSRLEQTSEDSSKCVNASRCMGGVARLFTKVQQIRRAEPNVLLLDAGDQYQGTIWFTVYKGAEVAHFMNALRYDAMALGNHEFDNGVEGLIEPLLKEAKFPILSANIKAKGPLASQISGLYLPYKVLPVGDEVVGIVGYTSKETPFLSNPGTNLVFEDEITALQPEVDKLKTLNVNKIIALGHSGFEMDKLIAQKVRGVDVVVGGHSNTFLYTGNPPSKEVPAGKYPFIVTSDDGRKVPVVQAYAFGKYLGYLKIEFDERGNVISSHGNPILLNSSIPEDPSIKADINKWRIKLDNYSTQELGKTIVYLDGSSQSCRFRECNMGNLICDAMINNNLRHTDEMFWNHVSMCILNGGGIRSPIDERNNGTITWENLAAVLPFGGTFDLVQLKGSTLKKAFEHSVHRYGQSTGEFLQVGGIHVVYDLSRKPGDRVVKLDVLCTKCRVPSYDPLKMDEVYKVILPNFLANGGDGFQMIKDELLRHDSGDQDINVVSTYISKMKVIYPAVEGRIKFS

[2] = biological target: T1, human CD73 on the cell surface of …; test: flow cytometry on CHOK1-huCD73-3F4 cells, PE-goat anti-human-Fc
Method: All antigen-binding proteins were diluted to 30 μg/ml with 1% BSA in PBS solution (1% BSA/PBS) and then 3-fold diluted for 11 gradients. The diluted antigen-binding proteins were added to a 96-well U-shaped plate at 20 μL per well; and a negative control (with 1% BSA/PBS added only) was set up at the same time. The suspension of cells (CHOK1-huCD73-3F4, Huabo Biopharm) expressing human CD73 during the logarithmic growth phase were centrifuged (1000 rpm×5 min) to discard the culture medium; and the cells were resuspended with 1% BSA/PBS until the density of viable cells was 1×10⁶/mL, and were added, at 20 μL (2×10⁴ cells) per well, to the 96-well U-shaped plate with the […] antigen-binding protein to react for 30 min at room temperature. After reaction, the 96-well U-shaped plate was resuspended with 1% BSA/PBS, centrifuged (300 g×3 min) to discard the supernatant, and washed once in such a way. PE-goat anti-human-Fc (Jackson ImmunoResearch, #109-115098) diluted at 1:200 was added to react for 15 min in the dark at room temperature. After reaction, the 96-well U-shaped plate was resuspended with 1% BSA/PBS, centrifuged (300 g×3 min) to discard the supernatant, washed three times in such a way, and finally resuspended with 100 μL of 1% BSA/PBS for each wall; and the fluorescence intensity of a PE channel was detected with a flow cytometer (BD, #Cantoll).

[3] = biological target: T2, Human CD73 (as used in the hybridoma screening of Table 1) (human, UniProt P21589 27-549, limits assumed); test: Biacore affinity screen of hybridoma clones
T2 sequence (looked up): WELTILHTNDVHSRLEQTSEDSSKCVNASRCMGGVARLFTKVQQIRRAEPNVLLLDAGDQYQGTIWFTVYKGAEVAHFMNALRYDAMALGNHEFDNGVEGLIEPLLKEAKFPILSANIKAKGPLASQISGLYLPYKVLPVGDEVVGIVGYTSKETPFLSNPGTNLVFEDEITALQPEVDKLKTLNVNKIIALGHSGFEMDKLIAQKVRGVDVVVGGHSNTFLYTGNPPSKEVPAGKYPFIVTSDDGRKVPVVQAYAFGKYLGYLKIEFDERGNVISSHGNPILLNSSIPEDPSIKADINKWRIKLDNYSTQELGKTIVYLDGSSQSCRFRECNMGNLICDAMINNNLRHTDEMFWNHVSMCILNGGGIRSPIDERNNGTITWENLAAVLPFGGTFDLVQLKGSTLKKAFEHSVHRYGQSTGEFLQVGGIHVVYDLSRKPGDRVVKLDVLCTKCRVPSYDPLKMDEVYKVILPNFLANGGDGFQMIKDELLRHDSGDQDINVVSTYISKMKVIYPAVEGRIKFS

[4] = biological target: T1, human CD73 on the cell surface of …; test: cell-based or functional assay; remark: listed apart in the source

EC50 of inhibition of the enzyme activity of CD73 on cell membrane (AMP/ATP, CellTiter-Glo) [1]: 11.1 µg/mL | EC50 [2]: 2.9 µg/mL
B1: 900584 (screened antigen-binding protein targeting CD73) (antibody, V domains shown)
VH: QVQVQQPGTELVKPGASVKLSCKASGYTFTGYWMHWVKQRPGQGLEWIGMIHPNSGSTYYNEKFKSKATLTVDRSSSTAYMQLSSLSSEDSAVYYCARYYGTTYEWYFDVWGTGTTVTVSS
VL: DIQMTQTTSSLSASLGDRVTISCRASQDISNYLNWYQQKPDGTVKPLIYYTSSLHSGVPSRFSGSGSGTDYSLTISDLEHEDIATYFCQQGYTLPFTFGGGTKLEIK
notes: It was detected with PE-goat anti-human-Fc

Kd [3]: 2.16 nM
B2: 124A9 murine monoclonal antigen-binding protein (hybridoma clone 124A9) (antibody, V domains shown)
VH: QVQLQQPGAELVKPGASVKLSCKASGYTFTSYWIHWVKQRPGQGLDWIGMIHPNSGSTYYNEKFKSKATLTVDKSSSTAYMQLSSLTSEDSAVYYCARYYGSDYEWYFDVWGTGTTVTVSS
VL: DIVMTQSQKFMSTSVGDRVSITCKASQNVRTAVVWYQQNPGQSPKALIYLASNRHTGVPDRFTGSGSGTDFTLTISNVHSEDLADYFCLQHWNYPYTFGGGTKLEIK

EC50 of inhibition of the enzyme activity of CD73 on cell membrane (AMP/ATP, CellTiter-Glo) [4]: 0.0417 µg/mL
B3: 900759 (Oleclumab antibody sourced from MedImmune, MEDI 9447) (antibody, human IgG1, lambda, L234A L235A, V domains shown)
VH: EVQLLESGGGLVQPGGSLRLSCAASGFTFSSYAYSWVRQAPGKGLEWVSAISGSGGRTYYADSVKGRFTISRDNSKNTLYLQMNSLRAEDTAVYYCARLGYGRVDEWGRGTLVTVSS
VL: QSVLTQPPSASGTPGQRVTISCSGSLSNIGRNPVNWYQQLPGTAPKLLIYLDNLRLSGVPDRFSGSKSGTSASLAISGLQSEDEADYYCATWDDSHPGWTFGGGTKLTVLG

— patent publication US20240067747A1 (SHANGHAI HUAOTA BIOPHARMACEUTICAL, published 2024)
